Test results taken from US20210246166A1 (Bayer, published 2021).
Bridge positions count the residues as written; N and C are the ends. Square brackets hold non-standard residues; d marks the D form. Ends that are not written are not given here. Pro(cis-4-CF3) = O=C(O)[C@@H]1C[C@H](C(F)(F)F)CN1; Oic = O=C(O)[C@@H]1C[C@@H]2CCCC[C@@H]2N1; tBuAla = CC(C)(C)C[C@H](N)C(=O)O; Chg = N[C@H](C(=O)O)C1CCCCC1; Pen = CC(C)(S)[C@H](N)C(=O)O; NMeC = CN[C@@H](CS)C(=O)O; NMeA = CN[C@@H](C)C(=O)O; Dab = NCC[C@H](N)C(=O)O; Abu = CC[C@H](N)C(=O)O; Sar = CNCC(=O)O

T1: Recombinant human MASP1 enzyme (fragment corresponding to amino acids 297-699, C-terminal His Tag) (human, UniProt P48740 297-699)
T1 sequence: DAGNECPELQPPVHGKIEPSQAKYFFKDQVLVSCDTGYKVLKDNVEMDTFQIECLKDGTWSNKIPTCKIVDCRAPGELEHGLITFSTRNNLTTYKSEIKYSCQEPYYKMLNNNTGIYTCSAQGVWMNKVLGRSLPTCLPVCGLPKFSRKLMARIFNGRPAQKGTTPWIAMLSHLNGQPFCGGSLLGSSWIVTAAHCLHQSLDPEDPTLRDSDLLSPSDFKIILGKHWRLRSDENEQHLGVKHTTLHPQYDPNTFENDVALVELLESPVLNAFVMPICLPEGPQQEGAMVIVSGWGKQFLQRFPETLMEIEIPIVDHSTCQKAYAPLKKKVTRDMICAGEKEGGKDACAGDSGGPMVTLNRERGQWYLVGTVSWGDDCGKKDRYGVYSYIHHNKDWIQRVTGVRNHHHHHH

B1: aIC+SRSLP-(Oic)-I-(Pen)+I-NH2 (peptide)
peptide: [dA]ICSRSLP[Oic]I[Pen]I-NH2
modifications: disulfide 3-11; N-terminus assumed
SMILES: CC[C@H](C)[C@H](NC(=O)[C@H]1NC(=O)[C@H]([C@@H](C)CC)NC(=O)[C@@H]2C[C@@H]3CCCC[C@@H]3N2C(=O)[C@@H]2CCCN2C(=O)[C@H](CC(C)C)NC(=O)[C@H](CO)NC(=O)[C@H](CCCNC(=N)N)NC(=O)[C@H](CO)NC(=O)[C@@H](NC(=O)[C@@H](NC(=O)[C@@H](C)N)[C@@H](C)CC)CSSC1(C)C)C(N)=O
B2: AIC+SRSLP-(Oic)-I-((N-Me)C)+I-NH2 (peptide)
peptide: AICSRSLP[Oic]I[NMeC]I-NH2
modifications: disulfide 3-11; N-terminus assumed
SMILES: CC[C@H](C)[C@H](NC(=O)[C@@H]1CSSC[C@H](NC(=O)[C@@H](NC(=O)[C@H](C)N)[C@@H](C)CC)C(=O)N[C@@H](CO)C(=O)N[C@@H](CCCNC(=N)N)C(=O)N[C@@H](CO)C(=O)N[C@@H](CC(C)C)C(=O)N2CCC[C@H]2C(=O)N2[C@@H](C[C@@H]3CCCC[C@@H]32)C(=O)N[C@@H]([C@@H](C)CC)C(=O)N1C)C(N)=O
B3: AIC+SRS-((tBu)A)-P-((4-CF3)P)-IC+IPD-NH2 (peptide)
peptide: AICSRS[tBuAla]P[Pro(cis-4-CF3)]ICIPD-NH2
modifications: disulfide 3-11; N-terminus assumed
SMILES: CC[C@H](C)[C@H](NC(=O)[C@H](C)N)C(=O)N[C@H]1CSSC[C@@H](C(=O)N[C@H](C(=O)N2CCC[C@H]2C(=O)N[C@@H](CC(=O)O)C(N)=O)[C@@H](C)CC)NC(=O)[C@H]([C@@H](C)CC)NC(=O)[C@@H]2C[C@H](C(F)(F)F)CN2C(=O)[C@@H]2CCCN2C(=O)[C@H](CC(C)(C)C)NC(=O)[C@H](CO)NC(=O)[C@H](CCCNC(=N)N)NC(=O)[C@H](CO)NC1=O
B4: (Dab)-IC+SRS-((tBu)A)-PPI-(Pen)+IP-NH2 (peptide)
peptide: [Dab]ICSRS[tBuAla]PPI[Pen]IP-NH2
modifications: disulfide 3-11; N-terminus assumed
SMILES: CC[C@H](C)[C@H](NC(=O)[C@@H](N)CCN)C(=O)N[C@H]1CSSC(C)(C)[C@@H](C(=O)N[C@H](C(=O)N2CCC[C@H]2C(N)=O)[C@@H](C)CC)NC(=O)[C@H]([C@@H](C)CC)NC(=O)[C@@H]2CCCN2C(=O)[C@@H]2CCCN2C(=O)[C@H](CC(C)(C)C)NC(=O)[C@H](CO)NC(=O)[C@H](CCCNC(=N)N)NC(=O)[C@H](CO)NC1=O
B5: ((N-Me)G)-IC+SRS-((tBu)A)-PPI-(Pen)+IP-NH2 (peptide)
peptide: [Sar]ICSRS[tBuAla]PPI[Pen]IP-NH2
modifications: disulfide 3-11; N-terminus assumed
SMILES: CC[C@H](C)[C@H](NC(=O)CNC)C(=O)N[C@H]1CSSC(C)(C)[C@@H](C(=O)N[C@H](C(=O)N2CCC[C@H]2C(N)=O)[C@@H](C)CC)NC(=O)[C@H]([C@@H](C)CC)NC(=O)[C@@H]2CCCN2C(=O)[C@@H]2CCCN2C(=O)[C@H](CC(C)(C)C)NC(=O)[C@H](CO)NC(=O)[C@H](CCCNC(=N)N)NC(=O)[C@H](CO)NC1=O
B6: ((N-Me)G)-IC+SRSLP-(Oic)-I-(Pen)+IPD-NH2 (peptide)
peptide: [Sar]ICSRSLP[Oic]I[Pen]IPD-NH2
modifications: disulfide 3-11; N-terminus assumed
SMILES: CC[C@H](C)[C@H](NC(=O)CNC)C(=O)N[C@H]1CSSC(C)(C)[C@@H](C(=O)N[C@H](C(=O)N2CCC[C@H]2C(=O)N[C@@H](CC(=O)O)C(N)=O)[C@@H](C)CC)NC(=O)[C@H]([C@@H](C)CC)NC(=O)[C@@H]2C[C@@H]3CCCC[C@@H]3N2C(=O)[C@@H]2CCCN2C(=O)[C@H](CC(C)C)NC(=O)[C@H](CO)NC(=O)[C@H](CCCNC(=N)N)NC(=O)[C@H](CO)NC1=O
B7: ((N-Me)A)-IC+SRSLP-(Oic)-I-(Pen)+IPE-OH (peptide)
peptide: [NMeA]ICSRSLP[Oic]I[Pen]IPE-OH
modifications: disulfide 3-11; N-terminus assumed
SMILES: CC[C@H](C)[C@H](NC(=O)[C@H](C)NC)C(=O)N[C@H]1CSSC(C)(C)[C@@H](C(=O)N[C@H](C(=O)N2CCC[C@H]2C(=O)N[C@@H](CCC(=O)O)C(=O)O)[C@@H](C)CC)NC(=O)[C@H]([C@@H](C)CC)NC(=O)[C@@H]2C[C@@H]3CCCC[C@@H]3N2C(=O)[C@@H]2CCCN2C(=O)[C@H](CC(C)C)NC(=O)[C@H](CO)NC(=O)[C@H](CCCNC(=N)N)NC(=O)[C@H](CO)NC1=O
B8: ((N-Me)G)-IC+SRS-((tBu)A)-PPI-(Pen)+IPP-NH2 (peptide)
peptide: [Sar]ICSRS[tBuAla]PPI[Pen]IPP-NH2
modifications: disulfide 3-11; N-terminus assumed
SMILES: CC[C@H](C)[C@H](NC(=O)CNC)C(=O)N[C@H]1CSSC(C)(C)[C@@H](C(=O)N[C@H](C(=O)N2CCC[C@H]2C(=O)N2CCC[C@H]2C(N)=O)[C@@H](C)CC)NC(=O)[C@H]([C@@H](C)CC)NC(=O)[C@@H]2CCCN2C(=O)[C@@H]2CCCN2C(=O)[C@H](CC(C)(C)C)NC(=O)[C@H](CO)NC(=O)[C@H](CCCNC(=N)N)NC(=O)[C@H](CO)NC1=O
B9: (Abu)-IC+SRSLPP-(Chg)-C+IPD-NH2 (peptide)
peptide: [Abu]ICSRSLPP[Chg]CIPD-NH2
modifications: disulfide 3-11; N-terminus assumed
SMILES: CC[C@H](N)C(=O)N[C@H](C(=O)N[C@H]1CSSC[C@@H](C(=O)N[C@H](C(=O)N2CCC[C@H]2C(=O)N[C@@H](CC(=O)O)C(N)=O)[C@@H](C)CC)NC(=O)[C@H](C2CCCCC2)NC(=O)[C@@H]2CCCN2C(=O)[C@@H]2CCCN2C(=O)[C@H](CC(C)C)NC(=O)[C@H](CO)NC(=O)[C@H](CCCNC(=N)N)NC(=O)[C@H](CO)NC1=O)[C@@H](C)CC
B10: ((N-Me)G)-IC+SRSLP-(Oic)-I-(Pen)+IP-OH (peptide)
peptide: [Sar]ICSRSLP[Oic]I[Pen]IP-OH
modifications: disulfide 3-11; N-terminus assumed
SMILES: CC[C@H](C)[C@H](NC(=O)CNC)C(=O)N[C@H]1CSSC(C)(C)[C@@H](C(=O)N[C@H](C(=O)N2CCC[C@H]2C(=O)O)[C@@H](C)CC)NC(=O)[C@H]([C@@H](C)CC)NC(=O)[C@@H]2C[C@@H]3CCCC[C@@H]3N2C(=O)[C@@H]2CCCN2C(=O)[C@H](CC(C)C)NC(=O)[C@H](CO)NC(=O)[C@H](CCCNC(=N)N)NC(=O)[C@H](CO)NC1=O
B11: ((N-Me)A)-IC+SRSLP-(Oic)-I-(Pen)+IPD-OH (peptide)
peptide: [NMeA]ICSRSLP[Oic]I[Pen]IPD-OH
modifications: disulfide 3-11; N-terminus assumed
SMILES: CC[C@H](C)[C@H](NC(=O)[C@H](C)NC)C(=O)N[C@H]1CSSC(C)(C)[C@@H](C(=O)N[C@H](C(=O)N2CCC[C@H]2C(=O)N[C@@H](CC(=O)O)C(=O)O)[C@@H](C)CC)NC(=O)[C@H]([C@@H](C)CC)NC(=O)[C@@H]2C[C@@H]3CCCC[C@@H]3N2C(=O)[C@@H]2CCCN2C(=O)[C@H](CC(C)C)NC(=O)[C@H](CO)NC(=O)[C@H](CCCNC(=N)N)NC(=O)[C@H](CO)NC1=O

What follows are binders tested against T1, Recombinant human MASP1 enzyme … (assay: cell-based or functional assay).

human MASP1 IC50	Binder
3.9 nM	B1
3.9 nM	B2
3.9 nM	B3
4 nM	B4
4 nM	[Sar]ICSRSLP[Oic]I[Pen]I[5‑Azaspiro(2.4)heptane‑1‑carboxylic acid]-OH (disulfide 3-11) [((N-Me)G)-IC+SRSLP-(Oic)-I-(Pen)+I-((5-Azaspiro[2.4]heptane-1-carboxylic acid)-OH]
3.8 nM	B5
4.05 nM	B6
3.9 nM	B7
3.8 nM	B8
4.25 nM	B9
4.2 nM	B10
3.9 nM	B11

The binders below were run against Recombinant human MASP2 enzyme (fragment corresponding to amino acids 297-686, C-terminal His Tag) (human, UniProt O00187 297-686) (assay: cell-based or functional assay).
Recombinant human MASP2 enzyme (fragment corresponding to amino acids 297-686, C-terminal His Tag), sequence (O00187 other isoform, or with tags, fused parts or gaps limits assumed): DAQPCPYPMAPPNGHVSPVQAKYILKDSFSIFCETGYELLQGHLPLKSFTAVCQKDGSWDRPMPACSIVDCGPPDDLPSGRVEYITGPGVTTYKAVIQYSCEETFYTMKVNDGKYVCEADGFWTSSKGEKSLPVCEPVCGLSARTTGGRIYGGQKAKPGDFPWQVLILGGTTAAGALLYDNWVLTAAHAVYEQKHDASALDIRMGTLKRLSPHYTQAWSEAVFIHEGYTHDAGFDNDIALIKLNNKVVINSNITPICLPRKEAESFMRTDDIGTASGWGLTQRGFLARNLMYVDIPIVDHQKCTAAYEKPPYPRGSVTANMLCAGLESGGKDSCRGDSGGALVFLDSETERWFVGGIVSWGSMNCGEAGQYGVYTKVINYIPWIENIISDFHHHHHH

human MASP2 IC50	Binder
100 nM	B1
170 nM	B2
930 nM	B3
64 nM	B4
57 nM	[Sar]ICSRSLP[Oic]I[Pen]I[5‑Azaspiro(2.4)heptane‑1‑carboxylic acid]-OH (disulfide 3-11) [((N-Me)G)-IC+SRSLP-(Oic)-I-(Pen)+I-((5-Azaspiro[2.4]heptane-1-carboxylic acid)-OH]
44 nM	B5
150 nM	B6
170 nM	B7
63 nM	B8
52 nM	B9
230 nM	B10
160 nM	B11
